Measurements reported in article PMC10178869.

B1: E. coli Aquaporin Z (AqpZ), P60844 1-231 (natural protein)
chain: MFRKLAAECFGTFWLVFGGCGSAVLAAGFPELGIGFAGVALAFGLTVLTMAFAVGHISGGHFNPAVTIGLWAGGRFPAKEVVGYVIAQVVGGIVAAALLYLIASGKTGFDAAASGFASNGYGEHSPGGYSMLSALVVELVLSAGFLLVIHGATDKFAPAGFAPIAIGLALTLIHLISIPVTNTSVNPARSTAVAIFQGGWALEQLWFFWVVPIVGGIIGGLIYRTLLEKRD

Experiments:
[1] = molecular target: AqpZ nanodiscs (AqpZ, MSP1E3D1 and DOPC/POPG 4:1) (E. coli | not stated) (UniProt P60844); test: mass photometry; 10 nM AqpZ nanodiscs in TEN buffer (300 mM NaCl); nanodisc with nanodisc
[2] = molecular target: T1, E. coli Aquaporin Z (AqpZ) (E. coli), P60844; test: SDS-PAGE with or without heating; purified AqpZ nanodiscs (ND) or AqpZ in OG micelles, heated to 70 °C or unheated; settings: remark: other sources report otherwise
T1 chain: B1 chain

Molecule | stoichiometry N [1] | stoichiometry N [2]
AqpZ nanodiscs (AqpZ, MSP1E3D1 and DOPC/POPG 4:1) (from UniProt P60844 1-231) (complex) | 2 | –
B1 | – | 4
